Here are results for 41 sequences from the nanobody polyreactivity screen of Harvey et al. (2022).

The nature of this data set: yeast display, Sf9 membrane polyspecificity reagent, FACS + sequencing; frameworks hold sequencing errors. In a few lines: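 Nanobodies from a synthetic yeast display library (Saccharomyces cerevisiae BJ5465), induced 36–48 hours with galactose, were stained 1 hour at 4 °C with 10% biotinylated, detergent-solubilized Sf9 membrane reagent, enriched on streptavidin microbeads, then FACS-sorted. Anti-HA (expression) and streptavidin (reagent binding) fluorescence set low and high (top ~1%) gates. Polyreactivity labels come from the gate of origin. Genes were colony-PCR amplified, MiSeq 2 × 250 sequenced and filtered by CDR length.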
Take “QVQLVESGGGLVQAGGSLRLSCAASGSTLPGNVMGWYRQAPGKERELVAAISWTGGSTYYADSVKGRFTISRDNAKNTVYLQMNSLKPEDTAVYYCAVDAYESPWWSDPYEYWGQGTQVTVSS”: the “polyreactivity (PSR sort gate)” value is “low polyreactivity”. Take “QVQLVESGGGLVQAGGSLRLSCAASGSTLPRYTMGWYRQAPGKERELVAAISFSGSSTYYADSVKGRFTISRDNAKNTVYLQMNSMKPEDTSVYYCRYGYNYWGQGTQVTVSS”: the “polyreactivity (PSR sort gate)” value is “high polyreactivity”. For “QVQLVESGGGLVQAGGSLRLSCAASGSTLQRYAMGWYRQAPGKERELVAAISSGGRTYYADSVKGRFTISRDNAKNTVYLQMNRLKPEDTAVYYCAAVLPARSEPVRYYYWGQGTQVTVSS” the value was “high polyreactivity”.

Turning to “QVQLVESGGGLVQAGGSLRLSCAASGSTLRDYVMGWYRQAPGKERELVAAITSRVDDTYYADSVKGRFTISRDNAKNTVYLQMNSLKPEDTAVYDCAADYSVTLRIGGYYWFYAFDYWGQGTQVTVSS”, the “polyreactivity (PSR sort gate)” value is “low polyreactivity”.

On to “QVQLVESGGGLVQAGGSLRLSCAASGSTLRGYTMGWYRQAPGKERELVAAISWSGASTYYADSVKGRFTISRDNAKNTVYLQMNSLKPEDTAVYYCNRAGRYVREYTVDYWGQGTQVTVSS”, for which the “polyreactivity (PSR sort gate)” value is “high polyreactivity”. For “QVQLVESGGGLVQAGGSLRLSCAASGSTLRPYGMGWYRQAPGKERELVATIRSSSGRTYYADSVKGRFTISRDNAKNTVYLQMNSLKPEDTAVYYCARRYITNIKYDYWGQGTQVTVSS” the value was “high polyreactivity”; for “QVQLVESGGGLVQAGGSLRLSCAASGSTLRSYTMGWYRQAPGKERELVAAITTTGRTYYADSVKGRFTISRDNAKNTVYLQMNSLKPEDTAVYYCNAVAPGKYNHWGQGTQVTVSS”, “high polyreactivity”; for “QVQLVESGGGLVQAGGSLRLSCAASGSTLRTYAMGWYRQAPGKERELVAAISFSTTSTYYADSVKGRFTISRDNAKNTVYLQMNSLKPEDTAGYDCAAGPRTRYQPDLPGCYYSWGQGTQVTVSS”, “high polyreactivity”.

On to “QVQLVESGGGLVQAGGSLRLSCAASGSTLRYNTMGWYRQAPGKERELVAAISVRGGSTYYADSVKGRFTISRDNAKNTVYLQMNSLKPEDTAVYYCARRIKLGQRQGGYYWGQGTQVTVSS”, for which the “polyreactivity (PSR sort gate)” value is listed as “high polyreactivity”. On to “QVQLVESGGGLVQAGGSLRLSCAASGSTLSYYAMGWYRQAPGKERELVAAISFSGGITYYADSVKGRFTISRDNAKNTVYLQMNSLKPEDTAVYYIKAEYKVYRAYVIWYDYWGQGTQVTVSS”, for which the “polyreactivity (PSR sort gate)” value is “high polyreactivity”. On to “QVQLVESGGGLVQAGGSLRLSCAASGSTLSYYAMGWYRQAPGKERELVAAISSGGTTNYADSVKGRFTISRDNAKNTVYLQMNSLKPEDTAVYYCAAVRKSWWYSSEYYYWGQGTQVTVSS”, for which the “polyreactivity (PSR sort gate)” value is listed as “low polyreactivity”.

For the sequence “QVQLVESGGGLVQAGGSLRLSCAASGSTLTANAMGWYRQAPGKERELVAAISSAGRTYYADSVKGRFTISRDNAKNTVYLQMNSLKPEDTAVYYCAAPYGQLFTQGTWYEYWGQGTQVTVSS”, the “polyreactivity (PSR sort gate)” value is on record as “low polyreactivity”. For “QVQLVESGGGLVQAGGSLRLSCAASGSTLVANAMGWYRQAPGKERELVARITSGTSTYYADSVKGRFTISRDNAKNTVYLQMNSLKPEDTAVYYCAAGRWTRRRTYDSWGQGTQVTVSS” the value was “high polyreactivity”; for “QVQLVESGGGLVQAGGSLRLSCAASGSTLVGYVMGWYRQAPGKERELVAAITTVGSTYYADSVKGRFTISRDNAKNTVYLQMNSLKPEDTAVYYCAADRSDLAEEGYAGYDYWGQGTQVTVSS”, “low polyreactivity”; for “QVQLVESGGGLVQAGGSLRLSCAASGSTLVGYVMGWYRQAPGKERELVATISRSGGSTYYADSVKGRFTISRDNAKNTVYLQMNSLKPEDTAVYYCATDLLNNVDYDYWGQGTQVTVSS”, “low polyreactivity”.

“QVQLVESGGGLVQAGGSLRLSCAASGSTLVKYAMGWYRQAPGKERELVAAISWSGGRTYYADSVKGRFTISRDNAKNNVYLQMNSLKPEDTAVYYCAARRKAVRYDYWGQGTQVTVSS”: the “polyreactivity (PSR sort gate)” value is recorded as “high polyreactivity”. Turning to “QVQLVESGGGLVQAGGSLRLSCAASGSTLVQYVMGWYRQAPGKERELVAAISGSGGSTYYADSVKGRFTISRDNAKNTVYLQMNSLKPEDTAVYYCAASRRSGYGYWGQGTQVTVSS”, the “polyreactivity (PSR sort gate)” value is listed as “high polyreactivity”. As to “QVQLVESGGGLVQAGGSLRLSCAASGSTLVRKAMGWYRQAPGKERELVAAISRSGGRTYYADSVKGRFTISRDNAKNTVYLQMNSLKPEDTAVYYCARLDGFSASDHDYWGQGTQVTVSS”, the “polyreactivity (PSR sort gate)” value is “high polyreactivity”. For “QVQLVESGGGLVQAGGSLRLSCAASGSTLVTYAMAWYRQAPGKERELVAAISGGTGTDYADSVKGRFTISRDNAKNTVYLQMNSLKPEDTAVYYCAAKSSSNKVDYYYWGQGSQVTVSS” the value was “low polyreactivity”.

In the case of “QVQLVESGGGLVQAGGSLRLSCAASGSTLVYNDMGWYRQAPGKEREFVAAIRSNDGSTYYADSVKGRFTISRDNAKNTVYLQMNSLKAEDTAVYYCNKDVWDGYDWPEFDYWGQGTQVTVSS”, the “polyreactivity (PSR sort gate)” value is reported as “low polyreactivity”.

Consider “QVQLVESGGGLVQAGGSLRLSCAASGSTLVYNDMGWYRQAPGKEREFVAAIRSNDGSTYYADSVKGRFTISRDNAKNTVYLQMNSLKPEDTAVYYCNARNQVYKIYYSDYRRYDYWGQGTQVTVSS”, for which the “polyreactivity (PSR sort gate)” value is given as “low polyreactivity”. Turning to “QVQLVESGGGLVQAGGSLRLSCAASGSTLVYYDMGWYRQAPGKERELVATITGTDSAYYAVSVKGRFTISRDNAMNTVYLQMNRLKPEDTADCAADRAASRADYEYWGQGTQVTVSS”, the “polyreactivity (PSR sort gate)” value is listed as “low polyreactivity”.

As to “QVQLVESGGGLVQAGGSLRLSCAASGSTLWIYAMGWYRQAPGKERELVAAISWSTGRTYYADSVKGRFTISRDNAKNTVYLQMNSLKPVDTAVYYCNAGPQHNTLKLFYYWGQGTQVTVSS”, the “polyreactivity (PSR sort gate)” value is “low polyreactivity”.

Turning to “QVQLVESGGGLVQAGGSLRLSCAASGSTLWLYAMGWYRQAHGKERELVAVISNSGSTYYAESVKGRFTISRDNAKNTVYLQMNSLKPEDTAVYSCNKDGGGDSYWYDYWGQGTQVTVSS”, the “polyreactivity (PSR sort gate)” value was “low polyreactivity”. For “QVQLVESGGGLVQAGGSLRLSCAASGSTLWYNAMGWYRQAPGKERELVATITAGGGSTYYADSVKGRFTISRDNAKNTVYLQMNSLKPEDTAVYYCATPVASVTGYDYWGQGTQVTVSS” the value was “low polyreactivity”; for “QVQLVESGGGLVQAGGSLRLSCAASGSTLWYNAMGWYRQGPGKERELVASITSDGGSSTYADSVKGRFTISRDNAKYTVYLQMNSLKPEDTAVYYCAADWPIVQYDYWGQGTQVTVSS”, “low polyreactivity”; for “QVQLVESGGGLVQAGGSLRLSCAASGSTLYCNAMGWYRQAPGKERELVAAISRSGGSTYYADSVKGRFTISRDNAKKTVYLQMNSLKPEDTAVYYCAARRYVPHTEYYYWGQGTQGTVSS”, “low polyreactivity”.

For the sequence “QVQLVESGGGLVQAGGSLRLSCAASGSTLYFYAMGGYRQAPGKERELVADITWSGGSTYYADSVKGRFTISRDNAKNTVYLQMNSLKPEDTAVYYCNADDWSTYWYGYPGYVYWGQGTQVTVSS”, the “polyreactivity (PSR sort gate)” value was “high polyreactivity”. For “QVQLVESGGGLVQAGGSLRLSCAASGSTLYGNVMGWYRQAPGKERELVATINRGGSTNYADSVKGRFTISRDNAKNNVYLQMNSLKPEDTAVYYCAADYYGYWYDYEGDHWGQGTQVTVSS”, the “polyreactivity (PSR sort gate)” value is recorded as “low polyreactivity”. Consider “QVQLVESGGGLVQAGGSLRLSCAASGSTLYHNAMGWYRQAPGKERELVAIINYSGDNTYYADSVKGRFTISRDNAKNTVFLQMNSLKPEDTAVYYCAADLYERGRQAWQYDYWGQGTQVTVSS”, for which the “polyreactivity (PSR sort gate)” value is given as “low polyreactivity”. In the case of “QVQLVESGGGLVQAGGSLRLSCAASGSTLYHYDMGWYRQAPGKERELVAAITTSGDSTYYADSVKGRFTISRDNAKNTVYLQMNSLKPEDTAVYYCNADVFKTVFYIDRYYYWGQGTQVTVSS”, the “polyreactivity (PSR sort gate)” value is “low polyreactivity”. Turning to “QVQLVESGGGLVQAGGSLRLSCAASGSTLYIYAMGWYRQAPGKERELVAAITSSTGSTYADSVKGRFTISRDNAKNTVYLQMNSLKPEDTAVFVCNAGGPLQPYDYWGQGTQVTVSS”, the “polyreactivity (PSR sort gate)” value was “low polyreactivity”. For “QVQLVESGGGLVQAGGSLRLSCAASGSTLYPYAMGWYRQAPGKERELVAVITKSGGRTYYADSVKGRFTISRDNAKNTVYLQMNSLKPEDTAVYYCAAKSTYGRLGGDSWGQGTQVTVSS” the value was “high polyreactivity”. “QVQLVESGGGLVQAGGSLRLSCAASGSTLYRNAMGWYRQAPGKERELVAAINYRGTRTYYADSVKGRFTISRDNAKNTVYLQMNSLKPEDTAVYYCAKDYSQFVTYPYDYWGQGTQVTVSS”: the “polyreactivity (PSR sort gate)” value is reported as “low polyreactivity”. The entry for “QVQLVESGGGLVQAGGSLRLSCAASGSTLYWYAMGWYRQAPGKERELVAVITSSGVSTYYADSVKGRFTISRDNAKNTVYLQMNSLKPEDTAVYYCNAKWYGWQRGTVKYDYWGQGTQVTVSS” is “low polyreactivity”.

In the case of “QVQLVESGGGLVQAGGSLRLSCAASGSTLYYNAMGWYRQAPGKERELVAAITSGGSTSYADSVKGRFTISRDNAKNTVSFQMYSLKPEDTAVYYCAAVFYRRFDNWGQGTQVTVSS”, the “polyreactivity (PSR sort gate)” value is on record as “low polyreactivity”.

For “QVQLVESGGGLVQAGGSLRLSCAASGSTNGRYAMGWYRQAPGKERELVAAISYSGGSTYYADTVKGRFTISRDNAKNTVYLQMNSLKPEDTAVYYCAAQYVRKYRVSRGYNYWGQGTQVTVSS”, the “polyreactivity (PSR sort gate)” value was “high polyreactivity”. Take “QVQLVESGGGLVQAGGSLRLSCAASGSTRIYAMGWYRQAPGKERELVAAISWTGGRTYYADSVKGRFTISRDNAKNTVYLQMNSLKPEDTAVYYCAAKGSGRDYWGQGTQVTVSS”: the “polyreactivity (PSR sort gate)” value is given as “high polyreactivity”. “QVQLVESGGGLVQAGGSLRLSCAASGSTRRYAMGWYRQAPGKERELVAAISSRGGSTYYADSVKGRFTISRDNAKNTVYLQMNSLKPEDTAVYYCAARTTRGPTFGYWGQGTQVTVSS”: the “polyreactivity (PSR sort gate)” value is “high polyreactivity”. On to “QVQLVESGGGLVQAGGSLRLSCAASGSTSALYAMGWYRQAPGKERELVATITRSGTTKYADSVKGRFTISRDNAKNTVYLQMNSLKPEDTAVYYCNTDTYFPLYDYWGQGTQVTVSS”, for which the “polyreactivity (PSR sort gate)” value is “low polyreactivity”. For “QVQLVESGGGLVQAGGSLRLSCAASGSTSARYAMGWYRQAPGKERELVATITRSGTTKYADSVKGRFTISRDNAKNTVYLQMNSLKPEDTAVYYCNTDTYFPLYDYWGQGTQVTVSS” the value was “low polyreactivity”.
